B1: minF1; a variant is named by its letters at N, in order (parent)
chain: GAGACCGCAACTGAAAAGTTGTTNNNNAANNNNGGNTNNATTTCTGCACGTAGAAGCAAAAGGC

Variants of: B1
Experiment: fraction ligated after 30 min (ligated reads / total reads); higher = more ligase activity
Conditions: with F1*subA RNA substrate (template-directed ligation), 42 °C
Protocol: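 Chip-synthesised pool of minF1 ligase ribozyme variants (single and double substitutions, single to quadruple deletions, bulge and P2 designed variants) was transcribed with T7 and reacted as a pool with excess substrate F1*subA for 30 min at 42 C in 50 mM EPPS pH 8.5, 25 mM MgCl2. Ligated and unligated RNAs were separated by PAGE, barcoded by RT and deep sequenced; fraction ligated = ligated reads / total reads, relative activity = FL / FL of wild-type minF1 (0.76); sequencing FL correlated with PAGE (R2 = 0.98). Sequences are the DNA template of the ribozyme.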

| Variant | fraction ligated |
| --- | --- |
| ATCGGGATTGA A29T | 0.00409 |
| ATCAAATGGTG A28G | 0.00534 |
| ATCGTGGAGTG G34T | 0.0139 |
| ATCAAAGTGTA A28G | 0.00412 |
| ATGATGGGTGA | 0 |
| ATCAATGGGTT G34T T37G | 0.00279 |
| ATCAGGAGTGA A28G | 0.0026 |
| ATCGAGGAGTT G34T T37G | 0.00239 |
| ATCGATGGGTA | 0.000742 |
| ATCGATGGGTG | 0.00493 |
| ATCGATGGGTT G34A G35T T37G A40G | 0.000298 |
| ATCAAGGAGTT A28G G34T T37G A40G | 0.000656 |
| ATCGAGTGTGA | 0.00242 |
| ATCAATGGGTA A28G G34A | 0.00228 |
| ATCAATGGGTA A28G G34T | 0.00241 |
| ATGATGGAGTT G34T T37G A40G | 0.0011 |
| ATGATGGAGTA G34T | 0.00469 |
| ATCAAATGGTT A28G G34A T37G A40G | 0.000551 |
| ATCAGGATGTG A28G A29T | 0.00377 |
| ATCGTGATTGA | 0.00326 |
| ATCAAATGGTT A28G G34T T37G | 0.000947 |
| ATCATGGTGTA A28G | 0.0034 |
| ATCGATGGGTT G34A G35T T37G | 0.00178 |
| ATCAATGTGTG | 0.00785 |

| Variant | fraction ligated |
| --- | --- |
| ATCAATGTGTA | 0.00707 |
| ATCAATGGGTG A28G G34A | 0.00717 |
| ATCAATGGGTG A28G G34T | 0.00456 |
| ATCAATTGTGA A28G | 0.00238 |
| ATCATGGAGTT G34T T37G A40G | 0.00188 |
| ATCGGGATGTA A29T | 0.00281 |
| ATCGATGAGTG G34T | 0.0033 |
| ATCAAAGAGTT A28G G34T T37G | 0.00139 |
| ATCAAATGGTT A28G G35A T37G A40G | 0.00174 |
| ATCGAGGGTGA | 0.00167 |
| ATCGTGGAGTA G34T | 0.0058 |
| ATCAAGGAGTA G34T | 0.00413 |
| ATCAATGGGTA G34T | 0.0029 |
| ATCAATGGGTA G34A | 0.00177 |
| ATGATGGAGTG G34T | 0.011 |
| ATGATGGTGTG | 0.00658 |
| ATGATGGTGTA | 0.00485 |
| ATCAAAGGGTT A28G G34T T37G | 0.00171 |
| ATCAAAGAGTG A28G G34T | 0.00562 |
| ATCGATGGTGA | 0.00498 |
| ATCGATGATGA | 0.00308 |
| ATCGATGTTGA | 0.00239 |
| ATCAAGGTGTG A28G | 0.0012 |
| ATCATGATGTA A28G | 0.00257 |

| Variant | fraction ligated |
| --- | --- |
| ATCAATGAGTA A28G G34T | 0.00248 |
| ATCATGGAGTA A28G G34T | 0.00586 |
| ATCAAGAGTGA | 0.0037 |
| ATCAGGAGTGA A29T | 0.00323 |
| ATCAATGGGTT G34A T37G | 0.001 |
| ATCAATGGGTT G34A G35T T37G | 0.00168 |
| ATCAAAGGGTT A28G G34A G35T T37G | 0.00185 |
| ATCAAGATTGA A28G | 0.00251 |
| ATCAATGAGTT A28G G34T T37G A40G | 0.000608 |
| ATCAAGGAGTG G34T | 0.00633 |
| ATCAATGGGTT A28G G34T T37G | 0.00191 |
| ATCAAATGGTT A28G T37G | 0.00127 |
| ATCAATGAGTG A28G | 0.00439 |
| ATCAAATTGTG A28G | 0.00512 |
| ATCATGGTTGA A28G | 0.00132 |
| ATCGATATGTA | 0.0031 |
| ATCGATATGTG | 0.00524 |
| ATCGATGAGTA G34T | 0.00167 |
| ATCGAGATGTG | 0.0313 |
| ATCGAGATGTA | 0.00349 |
| ATCAATGGGTT G34A T37G A40G | 0.00153 |
| ATCAAAATTGA A28G | 0.00208 |
| ATCAAATGGTT A28G G35T T37G | 0.00103 |
| ATCAATATGTA A28G | 0.00429 |

| Variant | fraction ligated |
| --- | --- |
| ATCAAATATGA A28G | 0.00291 |
| ATCGTGAGTGA | 0.00262 |
| ATCGGGAGTGA A29T | 0.00273 |
| ATCGATATTGA | 0.00165 |
| ATCAAATGGTG A28G G34T | 0.0032 |
| ATCAAATGGTG A28G G34A | 0.00551 |
| ATCGTATGTGA | 0.00154 |
| ATCAAGGAGTG A28G | 0.00589 |
| ATCATGTGTGA A28G | 0.00186 |
| ATCAATGAGTT G34T T37G | 0.00278 |
| ATCATGGAGTG A28G G34T | 0.0152 |
| ATCAGATGTGA A28T A29G | 0.0131 |
| ATCAGGTGTGA | 0.00443 |
| ATCGAGGAGTT G34T T37G A40G | 0.000736 |
| ATCAAATTGTA A28G | 0.00076 |
| ATCAAATGGTT A28G G34A G35T T37G | 0.00118 |
| ATCAATATGTG A28G | 0.00686 |
| ATCAGATGTGA A28G | 0.00527 |
| ATGAGGATTGA A29T | 0.00582 |
| ATCGTGATGTA | 0.00285 |
| ATCGTGATGTG | 0.0261 |
| ATCGATGAGTT G34T T37G | 0.00178 |
| ATCAGGATGTA | 0.00297 |
| ATCAGGATGTG | 0.00943 |

| Variant | fraction ligated |
| --- | --- |
| ATCAAATGGGT A28G G35A T37G A40T | 0.00114 |
| ATCATGGAGTA A28G | 0.00253 |
| ATCAGGATGTA A28G A29T | 0.00157 |
| ATCAAAGTGTG A28G | 0.00272 |
| ATCAAGGTTGA | 0.00224 |
| ATCAAAGAGTG A28G | 0.00384 |
| ATGAGGTGTGA A29T | 0.00679 |
| ATCAATGAGTT A28G G34T T37G | 0.00246 |
| ATCGAGGAGTA G34T | 0.00121 |
| ATCAAGGTGTA A28G | 0.00466 |
| ATCGGATGTGA | 0.00494 |
| ATCAAATGTGT A28G G35A T37G A40T | 0.000969 |
| ATCGGATGTGA A28T A29G | 0.012 |
| ATCAGGTGTGA A28G | 0.00256 |
| ATCATGGATGA | 0.00299 |
| ATCAATGATGA | 0.00478 |
| ATCAATGAGTT G34T T37G A40G | 0.00152 |
| ATCGAGGAGTG G34T | 0.00393 |
| ATCAAAGGTGA A28G | 0.00196 |
| ATCAAAGAGTA A28G G34T | 0.00276 |
| ATCAAGGATGA A28G | 0.000468 |
| ATCAAGATTGA | 0.00249 |
| ATCAAATGGTA A28G | 0.0012 |
| ATCATGGGTGA | 0.00433 |

| Variant | fraction ligated |
| --- | --- |
| ATCAAGAGTGA A28G | 0.00247 |
| ATCAATGGGTT A28G G34A T37G A40G | 0.000541 |
| ATCGAGATTGA | 0.00372 |
| ATCAGGAGTGA A28G A29T | 0.0016 |
| ATCATGTGTGA | 0.00648 |
| ATCATGGGTGA A28G | 0.00379 |
| ATCAAATAGTA A28G G34T | 0.00133 |
| ATCAATGGGTT A28G G34A G35T T37G | 0.00268 |
| ATCAGGATGTG A29T | 0.0272 |
| ATGATATGTGA | 0.00429 |
| ATCAATGTTGA A28G | 0.0018 |
| ATCAAATGTGA A28G | 0.00482 |
| ATCGATTGTGA | 0.00257 |
| ATCAAAGGGTT A28G G34T T37G A40G | 0.000216 |
| ATCGGGTGTGA A29T | 0.00298 |
| ATCAGGTGTGA A29T | 0.00874 |
| ATCGTGGTGTA | 0.00478 |
| ATCGTGGTGTG | 0.00802 |
| ATCATATGTGA | 0.00281 |
| ATCAGGATGTG A28G | 0.0124 |
| ATCGATGAGTG | 0.00474 |
| ATCGATGAGTA | 0.00221 |
| ATCAGGATGTA A28G | 0.00247 |
| ATCAAGGGTGA A28G | 0.00483 |

| Variant | fraction ligated |
| --- | --- |
| ATCATGGTGTA | 0.00395 |
| ATCATGGTGTG | 0.00925 |
| ATCGTGGTTGA | 0.00112 |
| ATCAAGGAGTA A28G G34T | 0.00153 |
| ATGATGATGTA | 0.00247 |
| ATGATGATGTG | 0.00639 |
| ATCAAGGTTGA A28G | 0.00202 |
| ATCGATAGTGA | 0.00296 |
| ATGATGGTTGA | 0.00283 |
| ATCAATATTGA | 0.00211 |
| ATCAAGGATGA | 0.000429 |
| ATCAAGGAGTT G34T T37G A40G | 0.00198 |
| ATCAAATAGTT A28G G34T T37G A40G | 0.0013 |
| ATCGAGAGTGA | 0.00383 |
| ATCAATAGTGA | 0.00321 |
| ATCGAGGTTGA | 0.00313 |
| ATCAAAGGGTG A28G G34T | 0.00328 |
| ATCAAAGGGTG A28G G34A | 0.00764 |
| ATCATGGAGTT A28G G34T T37G A40G | 0.00132 |
| ATCAAGGTGTG | 0.00687 |
| ATCAAGGTGTA | 0.00438 |
| ATCAAAGTTGA A28G | 0.0038 |
| ATCATGGAGTG A28G | 0.00442 |

Source: the supplement of paper PMC6755084
